From patent US20160281104A1 (KOREA ATOMIC ENERGY RESEARCH INSTITUTE, published 2016)

Target: the molecule itself
Experiment: size exclusion chromatography (Superdex 200) and native PAGE; self-association

B1: alkyl hydroperoxide reductase subunit F (AhpF) protein of Pseudomonas aeruginosa (enzyme)
chain: MLDANLKTQLKAYLEKVSQPFEIVASLDDSDKSRELLGLLQDIVGLTDKITLKTDGSDARKPSFSLNRPGADIGLRFAGIPMGHEFTSLVLALLQVGGHPSKLDADVIEQVKGIEGTFEFETYFSLSCQNCPDVVQALNLMAVLNPNIRHVAIDGALFQDEVEARQIMSVPSIYLNGEVFGQGRMGVEEILAKIDTGAAARDAEKLTARDAFDVLVVGGGPAGAAAAIYAARKGIRTGVAAERFGGQVLDTMAIENFISVQETEGPKLARALEEHVRHYEVDIMNLQRASKLVPAKNAGELHEVRFESGGSLKAKTLILATGARWREMGVPGEQEYKAKGVCFCPHCDGPLFKGKRVAVIGGGNSGVEAAIDLAGIVAHVTLLEFDSKLRADAVLQRKLYSLPNVEVITSALTSEVKGDGQKVTGLVYKDRNSEEFKSIELEGIFVQIGLLPNTEWLKGSVELSPRGEIIVDARGETSLPGIFAAGDVTTVPYKQIVIAVGEGAKASLSAFDHLIRTSAPE
notes: Recombinant protein cloned from P. aeruginosa PAO1 genomic DNA and expressed from pET28a in E. coli BL21(DE3); It was purified on Ni-NTA and released from the resin with thrombin, so the His tag was cleaved; also called PaAhpF; AhpF(PA)
  binding result: binds
